# Target: CD81 on Huh7.5 cells (human) (UniProt P60033)
# Assay: cell-based or functional assay
# Chain of UniProt P60033 (P60033 whole entry): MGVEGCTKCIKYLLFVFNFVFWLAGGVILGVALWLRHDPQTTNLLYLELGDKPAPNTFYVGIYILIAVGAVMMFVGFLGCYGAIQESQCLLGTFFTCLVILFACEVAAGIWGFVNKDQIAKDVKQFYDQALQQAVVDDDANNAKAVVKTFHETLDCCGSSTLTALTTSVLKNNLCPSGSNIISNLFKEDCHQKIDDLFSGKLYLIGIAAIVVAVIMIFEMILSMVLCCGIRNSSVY
substance,measurement,value
"anti-CD81 (JS-81; BD Biosciences Pharmingen, Franklin Lakes, N.J.) (antibody)",% inhibition of infection of Huh7.5 cells (FFU) with genotype 2a recombinant J6/JFH1 at 0.02 µg/mL anti-CD81,< 50 % inhibition
same,% inhibition of infection of Huh7.5 cells (FFU) with genotype 2a recombinant J6/JFH1 at 2.5 µg/mL anti-CD81,> 90 % inhibition
same,% inhibition of infection of Huh7.5 cells (FFU) with genotype 7a recombinant QC69/JFH1 at 0.02 µg/mL anti-CD81,< 50 % inhibition
same,% inhibition of infection of Huh7.5 cells (FFU) with genotype 7a recombinant QC69/JFH1 at 2.5 µg/mL anti-CD81,> 90 % inhibition

# Source: patent US20110294195A1
